Article PMC2137869
Several values for one entry are separate records, joined by “and”; a condition that tells them apart may be missing. Equal entries are not always repeated.

Legend:
[1] = target: H chains of rabbit gamma2 globulin, first Sephadex G-100 peak (Fraction H) (rabbit); assay: sucrose density gradient ultracentrifugation
[2] = target: H chains of non-specific rabbit gamma2 globulin (rabbit); assay: sucrose density gradient ultracentrifugation

- per cent of the I131 label (L chains) in the >7S fraction [1]: 9 per cent
- per cent of the H chains in the 7S peak [2]: 60 per cent and 70 per cent
Substance: L chains of non-specific rabbit gamma2 globulin
